Laboratory results from IntAct's records for PubMed 9605924.

B1: Thyroid hormone receptor beta (Homo sapiens), P10828-1 (parent)
chain: MTPNSMTENGLTAWDKPKHCPDREHDWKLVGMSEACLHRKSHSERRSTLKNEQSSPHLIQTTWTSSIFHLDHDDVNDQSVSSAQTFQTEEKKCKGYIPSYLDKDELCVVCGDKATGYHYRCITCEGCKGFFRRTIQKNLHPSYSCKYEGKCVIDKVTRNQCQECRFKKCIYVGMATDLVLDDSKRLAKRKLIEENREKRRREELQKSIGHKPEPTDEEWELIKTVTEAHVATNAQGSHWKQKRKFLPEDIGQAPIVNAPEGGKVDLEAFSHFTKIITPAITRVVDFAKKLPMFCELPCEDQIILLKGCCMEIMSLRAAVRYDPESETLTLNGEMAVTRGQLKNGGLGVVSDAIFDLGMSLSSFNLDDTEVALLQAVLLMSSDRPGLACVERIEKYQDSFLLAFEHYINYRKHHVTHFWPKLLMKVTDLRMIGACHASRFLHMKVECPTELFPPLFLEVFED

Tests used:
[1] = variants of: B1; conditions: with ncor2_human NCOR2, Q9Y618
Chain of ncor2_human NCOR2, Q9Y618 (Q9Y618 whole entry): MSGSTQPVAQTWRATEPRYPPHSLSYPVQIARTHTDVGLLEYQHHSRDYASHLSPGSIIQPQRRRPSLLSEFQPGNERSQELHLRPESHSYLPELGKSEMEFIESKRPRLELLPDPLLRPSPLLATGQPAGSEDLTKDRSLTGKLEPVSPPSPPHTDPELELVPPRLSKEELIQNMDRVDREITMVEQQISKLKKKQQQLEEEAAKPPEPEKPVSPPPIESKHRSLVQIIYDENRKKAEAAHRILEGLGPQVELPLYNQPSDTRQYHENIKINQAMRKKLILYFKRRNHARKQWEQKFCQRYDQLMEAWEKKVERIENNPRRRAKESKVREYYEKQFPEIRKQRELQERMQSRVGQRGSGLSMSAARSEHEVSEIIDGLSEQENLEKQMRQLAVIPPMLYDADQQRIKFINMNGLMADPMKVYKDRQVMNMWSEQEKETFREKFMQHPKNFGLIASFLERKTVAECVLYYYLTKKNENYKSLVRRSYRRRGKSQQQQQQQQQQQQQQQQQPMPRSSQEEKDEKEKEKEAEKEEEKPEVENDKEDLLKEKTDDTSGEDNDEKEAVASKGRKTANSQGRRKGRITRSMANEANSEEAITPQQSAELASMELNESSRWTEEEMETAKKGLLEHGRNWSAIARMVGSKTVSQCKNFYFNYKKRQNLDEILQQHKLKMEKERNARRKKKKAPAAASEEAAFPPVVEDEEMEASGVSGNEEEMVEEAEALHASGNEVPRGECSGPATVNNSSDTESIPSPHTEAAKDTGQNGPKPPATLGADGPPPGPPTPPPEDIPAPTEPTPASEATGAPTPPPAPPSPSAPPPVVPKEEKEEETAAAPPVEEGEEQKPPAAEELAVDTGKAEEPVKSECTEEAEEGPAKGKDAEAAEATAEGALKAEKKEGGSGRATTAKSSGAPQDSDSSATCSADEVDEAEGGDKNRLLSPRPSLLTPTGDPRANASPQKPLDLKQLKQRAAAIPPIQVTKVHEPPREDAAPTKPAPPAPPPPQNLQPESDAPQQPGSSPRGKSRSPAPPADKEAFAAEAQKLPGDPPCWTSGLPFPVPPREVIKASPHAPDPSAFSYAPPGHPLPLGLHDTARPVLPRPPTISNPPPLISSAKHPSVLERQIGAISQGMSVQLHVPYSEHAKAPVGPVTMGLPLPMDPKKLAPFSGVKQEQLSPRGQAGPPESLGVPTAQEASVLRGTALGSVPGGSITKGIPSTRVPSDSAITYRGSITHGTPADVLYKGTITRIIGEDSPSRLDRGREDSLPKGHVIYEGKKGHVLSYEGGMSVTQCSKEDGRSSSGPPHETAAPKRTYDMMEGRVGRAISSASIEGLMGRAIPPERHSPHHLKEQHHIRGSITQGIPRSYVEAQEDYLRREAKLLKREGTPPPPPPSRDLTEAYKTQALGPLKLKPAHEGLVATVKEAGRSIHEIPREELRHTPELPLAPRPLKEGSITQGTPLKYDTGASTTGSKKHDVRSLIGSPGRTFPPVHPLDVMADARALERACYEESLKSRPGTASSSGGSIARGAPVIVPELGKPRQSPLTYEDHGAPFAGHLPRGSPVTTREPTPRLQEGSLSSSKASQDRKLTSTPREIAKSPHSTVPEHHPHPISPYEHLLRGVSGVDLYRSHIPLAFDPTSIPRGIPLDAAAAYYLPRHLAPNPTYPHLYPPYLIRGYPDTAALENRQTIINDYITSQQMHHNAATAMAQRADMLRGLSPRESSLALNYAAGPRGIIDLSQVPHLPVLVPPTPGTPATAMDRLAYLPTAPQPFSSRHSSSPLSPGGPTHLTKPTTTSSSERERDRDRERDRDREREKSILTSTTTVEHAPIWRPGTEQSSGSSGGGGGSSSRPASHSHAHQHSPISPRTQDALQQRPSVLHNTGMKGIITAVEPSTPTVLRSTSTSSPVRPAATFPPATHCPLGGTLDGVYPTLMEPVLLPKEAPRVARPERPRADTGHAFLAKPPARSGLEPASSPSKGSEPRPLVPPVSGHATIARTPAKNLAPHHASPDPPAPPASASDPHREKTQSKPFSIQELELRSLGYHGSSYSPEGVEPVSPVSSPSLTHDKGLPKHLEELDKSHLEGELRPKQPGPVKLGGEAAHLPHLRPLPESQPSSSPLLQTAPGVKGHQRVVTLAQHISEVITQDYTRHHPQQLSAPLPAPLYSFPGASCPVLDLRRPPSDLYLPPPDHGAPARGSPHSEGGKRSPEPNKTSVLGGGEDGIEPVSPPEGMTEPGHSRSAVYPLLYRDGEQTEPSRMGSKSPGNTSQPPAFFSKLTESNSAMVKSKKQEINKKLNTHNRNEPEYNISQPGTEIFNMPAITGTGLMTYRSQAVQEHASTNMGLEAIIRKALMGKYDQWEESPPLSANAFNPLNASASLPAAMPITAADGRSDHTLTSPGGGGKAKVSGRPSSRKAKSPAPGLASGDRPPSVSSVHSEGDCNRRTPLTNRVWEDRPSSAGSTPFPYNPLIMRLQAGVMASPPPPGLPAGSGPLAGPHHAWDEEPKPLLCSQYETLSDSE

[2] = variants of: B1; conditions: with ncoa1_human NCOA1, Q15788
Chain of ncoa1_human NCOA1, Q15788 (Q15788 whole entry): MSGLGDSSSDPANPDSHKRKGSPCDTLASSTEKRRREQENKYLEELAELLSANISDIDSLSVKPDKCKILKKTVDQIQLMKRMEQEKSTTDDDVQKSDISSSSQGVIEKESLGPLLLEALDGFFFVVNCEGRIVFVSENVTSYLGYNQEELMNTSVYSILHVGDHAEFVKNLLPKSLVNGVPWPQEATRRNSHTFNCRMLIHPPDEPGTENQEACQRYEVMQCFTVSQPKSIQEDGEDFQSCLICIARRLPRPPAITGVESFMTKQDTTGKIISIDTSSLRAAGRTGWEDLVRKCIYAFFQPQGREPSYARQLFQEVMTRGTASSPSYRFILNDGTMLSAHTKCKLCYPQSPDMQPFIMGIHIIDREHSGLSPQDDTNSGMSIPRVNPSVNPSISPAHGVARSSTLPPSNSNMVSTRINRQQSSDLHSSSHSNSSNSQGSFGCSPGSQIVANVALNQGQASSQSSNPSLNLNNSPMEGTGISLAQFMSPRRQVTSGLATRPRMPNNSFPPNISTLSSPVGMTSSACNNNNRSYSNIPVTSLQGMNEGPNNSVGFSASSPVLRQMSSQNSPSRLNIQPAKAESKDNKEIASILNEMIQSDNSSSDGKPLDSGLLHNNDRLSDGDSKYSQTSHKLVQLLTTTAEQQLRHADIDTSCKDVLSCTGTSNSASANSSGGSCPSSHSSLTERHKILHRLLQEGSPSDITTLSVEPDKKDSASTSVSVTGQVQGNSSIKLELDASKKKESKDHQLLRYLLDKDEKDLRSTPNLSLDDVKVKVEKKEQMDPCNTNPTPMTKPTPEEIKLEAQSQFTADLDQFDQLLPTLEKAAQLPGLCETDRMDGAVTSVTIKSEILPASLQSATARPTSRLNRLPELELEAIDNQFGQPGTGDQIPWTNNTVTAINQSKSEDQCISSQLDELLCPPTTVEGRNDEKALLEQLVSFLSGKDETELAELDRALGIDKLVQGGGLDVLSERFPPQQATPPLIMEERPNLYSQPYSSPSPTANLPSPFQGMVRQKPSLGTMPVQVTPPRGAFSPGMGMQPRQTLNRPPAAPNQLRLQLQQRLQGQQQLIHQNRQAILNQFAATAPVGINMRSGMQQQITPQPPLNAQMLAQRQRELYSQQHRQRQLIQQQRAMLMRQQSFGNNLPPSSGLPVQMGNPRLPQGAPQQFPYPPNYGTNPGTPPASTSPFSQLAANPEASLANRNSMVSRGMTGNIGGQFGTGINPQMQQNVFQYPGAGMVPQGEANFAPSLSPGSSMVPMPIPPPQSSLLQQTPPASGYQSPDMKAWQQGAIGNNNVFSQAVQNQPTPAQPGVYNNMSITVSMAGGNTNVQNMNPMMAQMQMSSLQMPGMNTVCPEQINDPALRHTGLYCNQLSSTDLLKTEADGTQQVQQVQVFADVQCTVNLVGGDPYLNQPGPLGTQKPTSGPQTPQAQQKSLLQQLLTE

effect of a mutation on the interaction [1] | effect of a mutation on the interaction [2] | Variant
increasing interaction strength | increasing interaction strength | MTPNSMTENGLTAWDKPKHCPDREHDWKLVGMSEACLHRKSHSERRSTLKNEQSSPHLIQTTWTSSIFHLDHDDVNDQSVSSAQTFQTEEKKCKGYIPSYLDKDELCVVCGDKATGYHYRCITCEGCKGFFRRTIQKNLHPSYSCKYEGKCVIDKVTRNQCQECRFKKCIYVGMATDLVLDDSKRLAKRKLIEENREKRRREELQKSIGHKPEPTDEEWELIKTVTEAHVATNAQGSHWKQKRKFLPEDIGQAPIVNAPEGGKVDLEAFSHFTKIITPAITRVVDFAKKLPMFCELPCEDQIILLKGCCMEIMSLRAAVRYDPESETLTLNGEMAVTRGQLKNGGLGVVSDAIFDLGMSLSSFNLDDTEVALLQAVLLMSSDRPGLACVERIEKYQDSFLLAFEHYINYRKHHVTHFWPKLLMKVTDLQMIGACHASRFLHMKVECPTELFPPLFLEVFED [R429Q]
increasing interaction strength | increasing interaction strength | MTPNSMTENGLTAWDKPKHCPDREHDWKLVGMSEACLHRKSHSERRSTLKNEQSSPHLIQTTWTSSIFHLDHDDVNDQSVSSAQTFQTEEKKCKGYIPSYLDKDELCVVCGDKATGYHYRCITCEGCKGFFRRTIQKNLHPSYSCKYEGKCVIDKVTRNQCQECRFKKCIYVGMATDLVLDDSKRLAKRKLIEENREKRRREELQKSIGHKPEPTDEEWELIKTVTEAHVATNAQGSHWKQKRKFLPEDIGQAPIVNAPEGGKVDLEAFSHFTKIITPAITRVVDFAKKLPMFCELPCEDQIILLKGCCMEIMSLRAAVRYDPESETLTLNGEMAVTRGQLKNGGLGVVSDAIFDLGMSLSSFNLDDTEVALLQAVLLMSSDHPGLACVERIEKYQDSFLLAFEHYINYRKHHVTHFWPKLLMKVTDLRMIGACHASRFLHMKVECPTELFPPLFLEVFED [R383H]
